Data as given in patent publication US20180079802A1.

B1: 4J21 Fab (Fab, V domains shown)
VH: QVQLVQSGSELKKPGASVKVSCKASGYSFTSYSINWVRQAPGQGPEWMGWIDTNTGNPTYAQDFAGRFVFSLDTSVTTAYLQISSLKAGDTAVYYCATYYVDLWGSYRQDYYGMDVWGHGTLVTVSS
VL: QSVVTQPPSVSGTPGQGVTISCSGGSSNIGSNPVNWYQMVPGTAPKLLLYTNNQRPSGVPDRFSGSKSGTSASLAINGLQSEDEADYYCAVWDDSLSGRWVFGGGTKLTVL
B2: 3E23 Fab (Fab, V domains shown)
VH: QVQLVQSGPGLVKPSDTLSLTCSVSSDALRSRSYYWGWVRQPPGKGLEWIGTVSYSGGTYYNPSLQSRVTVSVDTSKNHFSLRLNSVTAADAAVYYCARSYFYDGSGYYYLSYFDSWGQGTLVTVSS
VL: QAVVTQEPSLTVSPGGTVTLTCASSTGAVTSGHYPNWFQQKPGQPPRALIYSTDNKHSWTPARFSGSLLGVKAALTLSDVQPEDEADYYCLLHFGGVVVFGGGTKLTVL

Target: CHIKV VLP
Assay: SPR (Biacore T100), VLP captured by mouse anti-CHIKV mAbs, Fab injected

Binder | Kd | koff | kon | t1/2
B1 | 9 nM | 0.00142 s⁻¹ | 158000 M⁻¹ s⁻¹ | 8 min
B2 | 19.6 nM | 0.000393 s⁻¹ | 20300 M⁻¹ s⁻¹ | 29 min
